Read-outs that look alike come from different tables or passages of the source.
Columns and labels:
succinylated casein [1] = target: succinylated casein
[2] = test system: Bacillus stearothermophilus thermolysin; assay: Inhibitor analysis of B.s. thermolysin; assay type: biochemical; conditions: for type of inhibition, B.s. Thermolysin: kinetic analysis; for Ki: read-out: Inhibition Constant (Ki), B.s. Thermolysin
Procedure: (§1) Other metalloprotease inhibitors are utilized to further differentiate the p45 metalloprotease from the Bacillus thermolysins. Inhibition constants for 1,10-phenanthroline, phosphoramidon, and CdCl2 are determined to be 130 uM, 1 uM, and 67 uM against the p45 Metalloprotease (Table 3). Inhibition constants for 1,10-phenanthroline, phosphoramidon, and CdCl2 are 85 uM, 26 uM, and 2 uM against the Bacillus stearothermophilus thermolysin. […] It is of interest to note that phophoramidon is an effective inhibitor of many bacterial metallo-endopeptidases but few of mammalian origin. Also, it is interesting that CdCl2 is found to be such an effective inhibitor of metalloproteases. No evidence of CdCl2 inhibition of metalloproteases has been found in the literature.

p45 Metalloprotease = p45 Metalloprotease (Fusarium oxysporum, UniProt M1UZ70); assay: Inhibitor analysis of the p45 metalloprotease; assay type: biochemical; set-up: precursor 632 aa (18 signal, 226 pro); native or A. oryzae-expressed with same N-terminus; conditions: for type of inhibition, p45 Maturase: kinetic analysis
Procedure: as §1

[3] = test system: Fusarium oxysporum metalloprotease; assay: Inhibition of Fusarium metalloprotease with 1,10-phenanthroline / EDTA and reactivation with Zn2+; assay type: biochemical
Procedure: (§2) Metalloprotease activity is measured as released trypsin activity from pro-trypsin-like Fusarium oxysporum protease deposited at the Deutsche Sammlung von Mikroorganismen, Gottingen, Germany under the number DSM 2672, after a 30-60 min pre-incubation at 25° C. in 0.1M Tris, 2 mM CaCl2, pH 7 (at lower pH, 100 mM borate, 10 mM DMG, 2 mM CaCl2 is used).
(§3) Metalloproteases contain a catalytic zinc metal center which participates in the hydrolysis of the peptide backbone. The active zinc center differentiates these proteases from calpains whose activities are dependent upon the presence of calcium. Confirmation of a protease as a metallo-protease is loss of proteolytic activity accomplished by removal of the zinc center with 1,10-phenanthroline (1 mM) followed by titration with Zn^2+ (0.1-100 μM) to restore full activity.
(§4) However, when combined the metalloprotease cleaves recombinant pro-trypsin-like Fusarium oxysporum protease disclosed, supra to yield the active tryptic protease. Metalloprotease activity is halted upon the addition of 1 mM 1,10-phenanthroline (Table 1).

[4] = target: pro-trypsin-like Fusarium oxysporum protease (Fusarium oxysporum) (UniProt P35049)
FTC-labeled casein [5] = target: FTC-labeled casein
succinylated casein [6] = target: succinylated casein; remark: listed apart in the source
FTC-labeled casein [7] = assay: Thermal stability profile, FTC-casein hydrolysis; assay type: biochemical; conditions: 15 minutes at various temperatures, Universal buffer pH 7; FIG. 9
Procedure: Purified p45 metalloprotease or B.t. thermolysin (Boehringer Mannheim) (50 microliters, 0.1 mg/ml) are incubated at various temperatures for 15-minutes in Universal buffer, pH 7. Ten microliters of sample are then added to 30 microliters of Universal pH buffer (pH 7) and 20 microliters of FTC-labeled casein and are incubated at 37° C. for 1 hour. 150 microliters of 5% TCA is added to acidify and precipitate casein (1 hour at room temperature). […] Samples are then analyzed on the fluorimeter (slit width=2.5 nm; excitation freq.=490 nm; emission freq.=525 nm; integration time=2 sec).

succinylated casein [8] = assay: Casein hydrolysis, succinylated casein assay (QuantiCleave, BCA, 600 nm); assay type: biochemical; conditions: for maximum absorbance, casein hydrolysis: pH 6.5, room temperature, 40 minutes, FIG. 8
Procedure: 400 ul of casein solution (Pierce) is added to small test tubes along with 100 ul of protease. The tubes are vortexed and incubated at room temperature for 40 minutes. The incubation (and assay) buffer is 0.1 M borate, 2 mM CaCl2, and 10 mM dimethylglutarate, pH 6.5. At the end of the incubation, 60 microliters of trichloroacetic acid (100% w/v) is added, and the tubes are vortexed and centrifuged for 1 minute at 5000×g. 20 microliters of the resulting supernatant is placed into a microtiter plate well with 200 microliters of the BCA working reagent (Pierce). The plates are then vortexed and incubated another 30 minutes, then read at 600 nm using a Biomek 1000 microtiter plate reader.
400 microliters of casein solution (Pierce) are added to small test tubes along with 100 microliters of protease in buffer "A" (0.1M borate, 2 mM CaCl2 and 10 mM dimethylglutaric acid). At the end of the incubation, 60 microliters of trichloroacetic acid (100% w/v) is added, and the tubes are vortexed and centrifuged for 1 minute at 5000×g. 20 microliters of the resulting supernatant is placed into a microtiter plate well with 200 microliters of the BCA working reagent (Pierce). The plates are then vortexed and incubated another 30 minutes, then read at 600 nm using a Biomek 1000 microtiter plate reader.

[9] = test system: succinyl-Ala-Ala-Ala-p-nitroanilide; assay: Hydrolysis of succinyl-Ala-Ala-Ala-p-nitroanilide; assay type: biochemical
Source text: Both p45 metalloprotease and a neutral zinc endopeptidase secreted by Flavobacterium meningosepticum poorly hydrolyze the substrate N-[3-(2--furyl)acryloyl]-Leu-Gly-NH2. However, the neutral zinc endopeptidase secreted by Flavobacterium meningosepticum will hydrolyze the vertebrate elastase substrate succinyl-Ala-Ala-Ala-p-nitroanilide, a substrate that thermolysin cannot hydrolyze (Table 2). Therefore, succinyl-Ala-Ala-Ala-p-nitroanilide hydrolysis by the p45 metalloprotease is investigated. […] This effect further differentiates the p45 metalloprotease from other existing metalloproteases.

[10] = test system: pro-trypsin-like F. oxysporum protease; assay: Processing of pro-trypsin-like F. oxysporum protease to active trypsin-like protease
Procedure: Activatable pro-trypsin-like F. oxysporum protease is determined in microtiter wells as released trypsin-like F. oxysporum protease (tryptic) activity from pro-trypsin-like F. oxysporum protease after a 40 minute pre-incubation at room temperature with purified Fusarium oxysporum metalloprotease (approximately 6 ug).
Processed pro-trypsin-like F. oxysporum protease(i.e. mature trypsin-like F. oxysporum protease) activity is determined directly from microtiter plates containing the pre-incubated metalloprotease/pro-trypsin-like F. oxysporum protease cocktail (total volume=100 microliters), and 100 microliters of substrate (87 mg/ml.L-BAPNA stock in DMSO diluted 50-fold in sample buffer). Again, active trypsin-like F. oxysporum protease is determined as an increase in absorbance at 405 nm immediately after L-BAPNA addition.
Purified pro-trypsin-like F. oxysporum protease is added to fresh A. oryzae fermentation broths containing the recombinant p45 metalloprotease (approximately 90 mg/L) and incubated for either 1, 2, or 3 hours at room temperature. Levels of pro-trypsin-like F. oxysporum protease in the incubation mixtures range from 100 ug/ml to 13 mg/ml.
Purified pro-trypsin-like F. oxysporum protease (100 ug/ml) is added to various amounts of either purified recombinant p45 metalloprotease or purified B.s. metalloprotease.

FTC-labeled casein [11] = assay: Protease analysis using FTC-labeled casein; assay type: biochemical
Procedure: Samples are incubated at room temperature for 30 minutes.

[12] = test system: FAGLA: N-(3-[2-Furyl]Acryloyl)-Gly-Leu amide; assay: FAGLA hydrolysis (345 nm); assay type: biochemical
Procedure: The thermolytic substrate FAGLA: N-(3-[2-Furyl]Acryloyl)-Gly-Leu amide is used to further characterize the p45 metalloprotease and B.t. thermolysin. Reaction mixtures contain 100 microliters of N-(3-[2-Furyl]Acryloyl)-Gly-Leu amide (FAGLA) (2 mM) and 100 microliters of various concentrations of either thermolysin (Boehringer Mannheim) or purified p45 metalloprotease. Thermolytic activity is determined as a decrease in absorbance at 345 nm on the recording spectrometer for one minute(Shimadzu, UV160U). The linear range of the assay for thermolysin is 10-500 ug/ml thermolysin in the assay mix.

[13] = test system: Ac-Pro-Leu-Gly[2-mercapto-4-methyl-pentanoyl]-Leu-Gly-OEt; assay: Hydrolysis of the thermolytic merc-peptide substrate (Ellman's reagent, 405 nm); assay type: biochemical
Procedure: The thermolytic substrate Ac-Pro-Leu-Gly[2-mercapto-4-methyl-pentanoyl]-Leu-Gly-OEt (i.e. the merc-peptide) is also used to further characterize the p45 metalloprotease and B.t. thermolysin.
Reaction mixtures contain 100 microliters of Ac-Pro-Leu-Gly[2-mercapto-4-methyl-pentanoyl]-Leu-Gly-OEt (1 mM, and 1 mM Ellman's reagent) and 100 microliters of either B.t. thermolysin or purified p45 metalloprotease (0-3 ug/ml) in sample buffer.

[14] = test system: pro-trypsin-like Fusarium oxysporum protease; assay: Proteolytic enzyme assay: tryptic activity released from pro-trypsin-like protease, L-BAPNA, 405 nm; assay type: biochemical
Procedure: as §2, §3, §4

Molecule: dispase (enzyme)
- maximum absorbance, succinylated casein hydrolysis (succinylated casein [1]): 0.47 absorbance

Molecule: CC(C)C[C@H](NP(=O)(O)O[C@@H]1O[C@@H](C)[C@H](O)[C@@H](O)[C@H]1O)C(=O)N[C@@H](Cc1c[nH]c2ccccc12)C(=O)O [phosphoramidon]
- type of inhibition, B.s. Thermolysin [2]: Noncompetitive
- Ki [2]: 26 µM
- Ki (p45 Metalloprotease): 1 µM
- type of inhibition, p45 Maturase (p45 Metalloprotease): Noncompetitive

Molecule: O=C(O)CN(CCN(CC(=O)O)CC(=O)O)CC(=O)O [EDTA]
- metalloprotease activity upon addition of the inhibitor ([3]; inhibitor 1 mM): Analogous results

Molecule: neutral metalloprotease from Bacillus stearothermophilus (enzyme)
- Specific Activity (released trypsin activity, L-BAPNA) (g trypsin/min*mg) [4]: 0.018
- Specific Activity (fluorescence released from FTC-casein) (FTC-labeled casein [5]): 220 FU/min·mg
- maximum absorbance, succinylated casein hydrolysis (succinylated casein [6]): 0.47 O.D.

Molecule: [Cl][Cd][Cl] [CdCl2]
- type of inhibition, B.s. Thermolysin [2]: Competitive
- Ki [2]: 2 µM
- type of inhibition, p45 Maturase (p45 Metalloprotease): Noncompetitive
- Ki (p45 Metalloprotease; read-out: Inhibition Constant (Ki), p45 Maturase): 67 µM

Molecule: p45 metalloprotease from Fusarium oxysporum (enzyme)
- Specific Activity (released trypsin activity, L-BAPNA) (g trypsin/min*mg) [4]: 1.2
- Specific Activity (fluorescence released from FTC-casein) (FTC-labeled casein [5]): 170 FU/min·mg
- maximum absorbance, succinylated casein hydrolysis (succinylated casein [6]): 0.3 O.D

Molecule: [Zn+2] [Zn^2+]
- reactivation of the 1,10-phenanthroline-inhibited Fusarium metalloprotease ([3]; addition of 1 mM Zn2+): full reactivation

B1: Thermolysin from Bacillus thermoproteolyticus (enzyme)
chain: ITGTSTVGVGRGVLGDQKNINTTYSTYYYLQDNTRGNGIFTYDAKYRTTLPGSLWADADNQFFASYDAPAVDAHYYAGVTYDYYKNVHNRLSYDGNNAAIRSSVHYSQGYNNAFWNGSQMVYGDGDGQTFIPLSGGIDVVAHELTHAVTDYTAGLIYQNESGAINEAISDIFGTLVEFYANKNPDWEIGEDVYTPGISGDSLRSMSDPAKYGDPDHYSKRYTGTQDNGGVHINSGIINKAAYLISQGGTHYGVSVVGIGRDKLGKIFYRALTQYLTPTSNFSQLRAAAVQSATDLYGSTSQEVASVKQAFDAVGVK
- maximum absorbance, succinylated casein hydrolysis (succinylated casein [1]): 0.47 absorbance

B2: thermolysin: Thermolysin from Bacillus thermoproteolyticus (B.t.), purchased from Boehringer Mannheim (protein)
chain: B1 chain
- optimum temperature for hydrolysis of FTC-casein (FTC-labeled casein [7]): 80 °C
- maximum absorbance, casein hydrolysis (succinylated casein [8]): ~0.47 O.D. units

B3: B.s. Thermolysin: thermolysin / neutral metalloprotease from Bacillus stearothermophilus (B.s.) (protein, UniProt P43133 236-551, looked up)
Thermolysin: B1 chain
- Specific Activity, substrate Ala-Ala-Ala-pNA [9]: < 2 pmol pNA/min*mg
- hydrolysis of succinyl-Ala-Ala-Ala-p-nitroanilide ([9]; substrate 4.4 mM in 0.1M Tris, pH 8): neither, the p45 metalloprotease nor the B.s. thermolysin would hydrolyze
- Specific Activity, substrate pro-trypsin [10]: .018 g trypsin/min*mg
- Specific Activity, substrate FTC-Labelled Casein (FTC-labeled casein [11]): 220 FU/min*mg
- Specific Activity, substrate FAGLA [12]: 227 -AU/sec*mg
- Specific Activity, substrate Succinylated Casein (maximal level) (succinylated casein [8]): 0.47 O.D.
- maximum absorbance, casein hydrolysis (succinylated casein [8]): ~0.47 O.D. units
- Specific Activity, substrate merc-peptide [13]: 2.9 AU/min*mg

B4: Pro-trypsin-like F. oxysporum protease: recombinant proenzyme form of the trypsin-like F. oxysporum protease (protein)
chain: APQEIPNIVGGTSASAGDFPFIVSISRNGGPWCGGSLLNANTVLTAAHCVSGYAQSGFQIRAGSLSRTSGGITSSLSSVRVHPSYSGNNNDLAILKLSTSIPSGGNIGYARLAASGSDPVAGSSATVAGWGATSEGGSSTPVNLLKVTVPIVSRATCRAQYGTSAITNQMFCAGVSSGGKDSCQGDSGGPIVDSSNTLIGAVSWGNGCARPNYSGVYASVGALRSFIDTYA
- tryptic activity of the sample alone ([14]; sample alone): do not contain any tryptic activity
- Tryptic Activity ([14]; without 1,10-phenanthroline, without Zn2+): 1.26 Δ Abs/min × 10^-4
